The target of this experiment is T1, Fzd3 (receptor of the AP binding assays) (UniProt Q61086 23-666).
T1 sequence (looked up): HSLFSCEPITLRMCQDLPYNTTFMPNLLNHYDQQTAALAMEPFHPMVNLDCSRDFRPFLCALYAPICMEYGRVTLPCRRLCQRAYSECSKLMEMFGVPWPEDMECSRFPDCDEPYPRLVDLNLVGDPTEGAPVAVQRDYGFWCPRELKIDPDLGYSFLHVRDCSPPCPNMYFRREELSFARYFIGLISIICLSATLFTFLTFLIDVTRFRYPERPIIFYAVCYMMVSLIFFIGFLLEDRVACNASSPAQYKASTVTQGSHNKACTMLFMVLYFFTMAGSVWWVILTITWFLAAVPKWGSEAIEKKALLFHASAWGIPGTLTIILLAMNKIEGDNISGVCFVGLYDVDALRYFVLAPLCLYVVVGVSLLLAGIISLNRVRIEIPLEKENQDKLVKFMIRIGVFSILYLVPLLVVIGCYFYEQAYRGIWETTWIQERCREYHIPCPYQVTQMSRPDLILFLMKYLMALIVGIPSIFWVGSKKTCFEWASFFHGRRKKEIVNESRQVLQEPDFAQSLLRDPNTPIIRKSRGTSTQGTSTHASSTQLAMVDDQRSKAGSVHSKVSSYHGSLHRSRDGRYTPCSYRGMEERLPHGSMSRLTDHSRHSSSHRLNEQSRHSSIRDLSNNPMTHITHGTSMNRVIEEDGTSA
Briefly: alkaline phosphatase.

Here are results for one molecule from PMC13480463 (Science translational medicine, 2021).

B1: AP-tagged TSK protein (TSK-AP) (ligand, mouse, UniProt Q8CBR6 18-354, looked up)
chain: TRPCFPGCQCEEETFGLFDSFSLIRVDCSSLGPHIVPVPIPLDTAHLDLSSNRLETVNESVLAGPGYTTLAGLDLSYNLLTSIMPSAFSRLRYLESLDLSHNGLAALPAEIFTSSPLSDINLSHNRLREVSISAFTTHSQGRALHVDLSHNLIHRLLPHPARASLPAPTIQSLNLSWNRFRAVPDLRDLPLRYLSLDGNPLATINPDAFMGLAGLTHLSLASLQGILHLPPHGFRELPGLQVLDLSGNPKLKWAGAEVFSGLGLLQELDLSGSSLVPLPEMLLHHLPALQSVSVGQDVQCRRLVREGAYHRQPGSSPKVVLHCGDTQESAARGPDIL
In turn, B1 yielded a Kd of 0.27 nM.

What is called Kd is the concentration at which binding is half-saturated.
